Patent publication US20030129189A1, “Tumor necrosis factor-gamma” (priority 1994, published 2003)

How the values were obtained:
NF-kappaB in U937 cells = assay: NF-kappaB-SEAP reporter assay; type: cell-based; details: 72 hr
Protocol: [Bovine pulmonary artery endothelial cells were incubated with various concentrations of TNF-gamma for 48 hours. The apoptosis was assessed by nuclear staining with Hoechst 33342 fluorescence dye (10 mg/ml).] […] [U937 cells were transfected using lipofectamine (following manufacturer's instruction) with 0.2 mg of reporter plasmid (NF-kappaB-SEAP). The transfected U937 cells were collected and added to the 96-well plate ([…]/well) with various concentrated of TNF-gamma. After Incubation at 37° C. for 72 hr, the NF-kappaB activity was measured with luminometer at absorbance of 450 nm.]
Consistent with the Northern blot analysis, peripheral blood mononuclear cells (PBMC) and human umbilical vein endothelial cells (HUVEC) express TNF-gamma on the cell surface by immunostaining with antibody to TNF-gamma. […] The cells were incubated for 30 min at 40° C. with antibody (10 mg/ml ) to TNF-gamma to detected expression of TNF-gamma on cell surface, with DR3-Fc or LTbR-Fc (10 mg/ml) for receptor and ligand binding in the binding buffer (HBSS containing 10% BSA, 20 mM HEPES, pH 7.2, 0.02% NaN3). […] Fluorescence was analyzed by a FACscan flow cytometer (Becton Dickinson, Mountain View, Calif.).] […] After incubation at 37° C. for 72 hr, the NF-kB activity was measured with luminometer at absorbance of 450 nm.] […]

[1] = target: T1, LTβR on transiently transfected cells (UniProt P36941 31-435, limits assumed); assay: flow cytometry on transiently transfected cells
T1 construct: whole, on cells
T1 sequence (P36941 31-435 limits assumed): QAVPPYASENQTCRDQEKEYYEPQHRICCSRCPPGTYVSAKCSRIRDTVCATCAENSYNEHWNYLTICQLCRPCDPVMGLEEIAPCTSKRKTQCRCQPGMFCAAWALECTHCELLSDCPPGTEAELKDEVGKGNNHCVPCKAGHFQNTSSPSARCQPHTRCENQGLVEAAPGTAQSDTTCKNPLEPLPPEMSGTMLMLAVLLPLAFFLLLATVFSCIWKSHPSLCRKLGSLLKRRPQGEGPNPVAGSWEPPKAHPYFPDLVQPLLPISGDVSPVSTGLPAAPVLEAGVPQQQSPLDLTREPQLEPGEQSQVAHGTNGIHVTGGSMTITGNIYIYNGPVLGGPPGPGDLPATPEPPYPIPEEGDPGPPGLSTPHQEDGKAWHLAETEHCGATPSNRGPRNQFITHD
Protocol: (§1) One million cells, in 0.1 ml of FACS buffer (PBS, 0.1% BSA, 0.1% NaN₃), were incubated with 0.1-1 microgram of protein or antibody at RT for 15 min. The cells were washed with 3 ml of FACS buffer, reacted with biotinylated primary antibody, and stained with PE-conjugated secondary antibody at RT for 15 min. Cells were then washed again, resuspended in 0.5 microgram/ml of propidium iodide, and live cells were gated and analyzed on a FACScan using the CellQuest software (BD Biosciences).

[2] = target: T2, BCMA on transiently transfected cells (UniProt Q02223 1-184, limits assumed); assay: flow cytometry on transiently transfected cells
T2 construct: whole, on cells
T2 sequence (looked up): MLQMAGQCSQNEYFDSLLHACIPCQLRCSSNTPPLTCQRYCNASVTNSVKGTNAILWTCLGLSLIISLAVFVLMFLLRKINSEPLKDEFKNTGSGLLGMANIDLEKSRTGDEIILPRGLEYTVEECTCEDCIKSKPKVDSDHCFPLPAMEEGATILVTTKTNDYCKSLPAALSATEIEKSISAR
Protocol: as §1

[3] = target: T3, RANK on transiently transfected cells (UniProt Q9Y6Q6 30-616, limits assumed); assay: flow cytometry on transiently transfected cells
T3 construct: whole, on cells
T3 sequence (looked up): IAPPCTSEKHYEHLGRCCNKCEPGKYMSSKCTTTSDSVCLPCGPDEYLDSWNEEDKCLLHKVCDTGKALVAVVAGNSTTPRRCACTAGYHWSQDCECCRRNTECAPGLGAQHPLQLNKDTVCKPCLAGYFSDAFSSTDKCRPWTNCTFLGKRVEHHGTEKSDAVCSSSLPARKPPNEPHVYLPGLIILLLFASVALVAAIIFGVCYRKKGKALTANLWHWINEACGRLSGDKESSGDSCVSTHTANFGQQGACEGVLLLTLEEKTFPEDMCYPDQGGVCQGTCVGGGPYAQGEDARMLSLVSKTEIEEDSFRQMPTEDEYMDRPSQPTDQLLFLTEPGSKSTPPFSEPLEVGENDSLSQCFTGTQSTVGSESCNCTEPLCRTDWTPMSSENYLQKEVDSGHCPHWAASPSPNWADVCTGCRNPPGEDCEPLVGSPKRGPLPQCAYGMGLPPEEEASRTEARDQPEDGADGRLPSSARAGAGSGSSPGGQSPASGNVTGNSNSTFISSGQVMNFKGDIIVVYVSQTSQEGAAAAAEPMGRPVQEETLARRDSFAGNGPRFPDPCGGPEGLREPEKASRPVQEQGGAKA
Protocol: as §1

[4] = target: T4, DR6 on transiently transfected cells (UniProt O75509 42-655, limits assumed); assay: flow cytometry on transiently transfected cells
T4 construct: whole, on cells
T4 sequence (looked up): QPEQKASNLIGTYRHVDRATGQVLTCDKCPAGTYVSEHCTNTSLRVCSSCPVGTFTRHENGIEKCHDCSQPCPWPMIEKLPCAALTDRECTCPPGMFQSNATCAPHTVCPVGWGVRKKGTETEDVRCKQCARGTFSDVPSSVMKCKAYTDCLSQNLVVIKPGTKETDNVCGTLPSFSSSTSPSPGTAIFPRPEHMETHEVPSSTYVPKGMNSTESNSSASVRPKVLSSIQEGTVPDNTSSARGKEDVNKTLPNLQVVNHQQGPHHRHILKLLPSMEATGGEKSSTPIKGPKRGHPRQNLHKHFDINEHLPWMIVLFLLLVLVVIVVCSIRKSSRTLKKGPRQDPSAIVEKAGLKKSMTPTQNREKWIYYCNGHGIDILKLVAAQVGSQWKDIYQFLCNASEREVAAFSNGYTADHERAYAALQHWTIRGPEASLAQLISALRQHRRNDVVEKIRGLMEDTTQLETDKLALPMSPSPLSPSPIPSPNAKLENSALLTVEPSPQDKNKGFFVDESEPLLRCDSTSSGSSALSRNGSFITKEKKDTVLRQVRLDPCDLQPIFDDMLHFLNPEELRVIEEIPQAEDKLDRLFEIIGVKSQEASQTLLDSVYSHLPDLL
Protocol: as §1

## TNF-gamma: new member of the tumor necrosis factor family; the term refers to TNF-gamma-alpha and/or TNF-gamma-beta
NF-kappaB in U937 cells
  NF-kappaB activation: induces nuclear factor-kappaB (NF-kappaB)

B1: FLAG-tagged soluble TNF-gamma-beta (aa 72-251) (ligand)
chain: LKGQEFAPSHQQVYAPLRADGDKPRAHLTVVRQTPTQHFKNQFPALHWEHELGLAFTKNRMNYTNKFLLIPESGDYFIYSQVTFRGMTSECSEIRQAGRPNKPDSITVVITKVTDSYPEPTQLLMGTKSVCEVGSNWFQPIYLGAMFSLQEGDKLMVNVSDISLVDYTKEDKTFFGAFLL
notes: also called FLAG-TL1β; FLAG-TNF-gamma-beta; not shown: The N-terminal FLAG tag (pFLAG-CMV-1 vector) and any vector linker
[1]
  binding result: no binding
[2]
  binding result: no binding
[3]
  binding result: no binding
[4]
  binding result: no binding
